Reference: PMC4494898

Target: Egr-1 (Zif268) zinc-finger protein (UniProt P18146 335-423)
Experiment: fluorescence anisotropy

B1: 12-bp competitor duplex (dsDNA)
DNA 1: TATGTAGGCGGT
DNA 2: ACCGCCTACATA
Q: With B1 as the binder, how does the Kd read?
A: The Kd was 0.029 µM.
